PMC4937376, “CpsR, a GntR family regulator, transcriptionally regulates capsular polysaccharide biosynthesis and governs bacterial virulence in Streptococcus pneumoniae”

Biological target: 6His-CpsR (Streptococcus pneumoniae D39, UniProt A0A0H2ZMA3 1-247)
Assay: EMSA; 0.25 uM probe; EMSA: 20 ul, LightShift kit buffer (composition not given) with 50 ng/ul poly(dI-dC), 20 min room temperature, 6% gel; footprinting: 400 ng probe in 40 ul, 30 min at 25 C
Conditions: protein: recombinant; tags: 6His; chain copies: 2; label: 5'-biotin (top strand); blunt

B1: WT 33-mer (dsDNA)
DNA 1: TGTCATGTTCTTATTTCATTTTACTATATTTTT
DNA 2: AAAAATATAGTAAAATGAAATAAGAACATGACA
- binding result: binds
